In the supplement of paper PMC10567573:
± gives the standard deviation.

Assay: protein stability index of a GFP-peptide fusion (GPS, HEK-293T) (PSI 1-6); higher = more stable
Conditions: c terminus: a fixed tail appended
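Also: 24-mer peptide tiles fused after GFP, lentivirally expressed, FACS-sorted into six equal bins by GFP/DsRed ratio, decoded by Illumina sequencing, PSI is the read-weighted mean bin number.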

Sequence: LQGLIPGARYEVTVVSVRGFEESE [TNXB]
- protein stability index (treatment: DMSO): 2.19 ± 0.34
- protein stability index (treatment: MLN4924 1 uM, 8 h): 2.44 ± 0.78

Sequence: GGANDRWVRSVSFSHDGLHVASLA [WSB1]
- protein stability index (treatment: DMSO): 3.08 ± 0.3
- protein stability index (treatment: MLN4924 1 uM, 8 h): 3.16 ± 0.42

Sequence: DGGSSLASGSTQRQPPPPAPQHPQ [FBXO28]
- protein stability index (treatment: DMSO): 5.22 ± 0.34
- protein stability index (treatment: MLN4924 1 uM, 8 h): 5.18 ± 0.35

Sequence: KKIFKSHLKSSRNSTSVKKKSSRN [P2RY14]
- protein stability index (treatment: DMSO): 3.87 ± 0.32
- protein stability index (treatment: MLN4924 1 uM, 8 h): 4.22 ± 0.41

Sequence: EPGGYDSSSTLMSSELETTSFFDS [DVL3]
- protein stability index (treatment: DMSO): 4.96 ± 0.31
- protein stability index (treatment: MLN4924 1 uM, 8 h): 4.96 ± 0.21

Sequence: EGVKRYEQEHAAIQDKLFQVAKRE [CHCHD6]
- protein stability index (treatment: DMSO): 4.84 ± 0.32
- protein stability index (treatment: MLN4924 1 uM, 8 h): 4.78 ± 0.24

Sequence: VGKTRLICARACNTTLTQYQLLAT [RHOBTB1]
- protein stability index (treatment: DMSO): 2.18 ± 0.35
- protein stability index (treatment: MLN4924 1 uM, 8 h): 2.21 ± 0.12

Sequence: AFAEMLRFGDRMFYKDWWNSTSYS [SOAT1]
- protein stability index (treatment: DMSO): 2.52 ± 0.36
- protein stability index (treatment: MLN4924 1 uM, 8 h): 2.58 ± 0.54

Sequence: SQKEMDKAETKTKKAAESLRRSVE [FCHO1]
- protein stability index (treatment: DMSO): 5.24 ± 0.29
- protein stability index (treatment: MLN4924 1 uM, 8 h): 5.23 ± 0.38

Sequence: CVTPNGRPISGTAVAHKTPRCPGS [SMOC2]
- protein stability index (treatment: DMSO): 2.98 ± 0.67
- protein stability index (treatment: MLN4924 1 uM, 8 h): 3.89 ± 0.34

Sequence: FADGVLSGEELHELFHTIDTHNTN [NECAB1]
- protein stability index (treatment: DMSO): 3.12 ± 0.38
- protein stability index (treatment: MLN4924 1 uM, 8 h): 3.68 ± 0.21

Sequence: VARVLRGCLENMPEADCIPKEQLS [PLK2]
- protein stability index (treatment: DMSO): 3.42 ± 0.26
- protein stability index (treatment: MLN4924 1 uM, 8 h): 3.62 ± 0.13

Sequence: KEIAKNLIQPINHTTLQCLAARVI [FEM1C]
- protein stability index (treatment: DMSO): 2.33 ± 0.5
- protein stability index (treatment: MLN4924 1 uM, 8 h): 2.33 ± 0.47

Sequence: TVDKQNISLWPREPPPKSGPSLVP [CD207]
- protein stability index (treatment: DMSO): 3.84 ± 0.21
- protein stability index (treatment: MLN4924 1 uM, 8 h): 3.73 ± 0.082

Sequence: LEKEREKEISDDEAEEEKGEKEEE [HSP90AB1]
- protein stability index (treatment: DMSO): 5.66 ± 0.34
- protein stability index (treatment: MLN4924 1 uM, 8 h): 5.74 ± 0.21

Sequence: RELWLKFHEVGTEMIITKAGRRMF [TBX5]
- protein stability index (treatment: DMSO): 2.31 ± 0.23
- protein stability index (treatment: MLN4924 1 uM, 8 h): 2.37 ± 0.31

Sequence: TKSHIMLVQRQMSVIEEDLEEFQL [NECAB1]
- protein stability index (treatment: DMSO): 3.22 ± 0.21
- protein stability index (treatment: MLN4924 1 uM, 8 h): 3.12 ± 0.21

Sequence: GLPAQQVGPWLGQLQELLHHCDDH [RSAD1]
- protein stability index (treatment: DMSO): 3.6 ± 0.34
- protein stability index (treatment: MLN4924 1 uM, 8 h): 3.61 ± 0.29

Sequence: EEMAKSSRASAARVGQLQEALNER [LRRC45]
- protein stability index (treatment: DMSO): 4.97 ± 0.46
- protein stability index (treatment: MLN4924 1 uM, 8 h): 5.12 ± 0.28

Sequence: IRHQRIHTGEKPYTCHECGDSFSH [ZNF263]
- protein stability index (treatment: DMSO): 2.62 ± 0.4
- protein stability index (treatment: MLN4924 1 uM, 8 h): 2.7 ± 0.36

Sequence: GDRLQFNQLSQAELDELASKAPVL [EFHC1]
- protein stability index (treatment: DMSO): 4.25 ± 0.42
- protein stability index (treatment: MLN4924 1 uM, 8 h): 4.72 ± 0.36

Sequence: AGIREAKAKQEKVSAQYLSEIEMA [FLOT1]
- protein stability index (treatment: DMSO): 4.63 ± 0.33
- protein stability index (treatment: MLN4924 1 uM, 8 h): 4.75 ± 0.14

Sequence: YIKTPLFNPEVAKYLKVPQDPLKF [IQUB]
- protein stability index (treatment: DMSO): 2.42 ± 0.66
- protein stability index (treatment: MLN4924 1 uM, 8 h): 2.57 ± 0.36

Sequence: KKAFLNQAQIELRLLELMNQHDTE [DYRK1B]
- protein stability index (treatment: DMSO): 3.05 ± 0.3
- protein stability index (treatment: MLN4924 1 uM, 8 h): 3.35 ± 0.14

Sequence: QGSPAVDKERFTTLVQDLANAFQQ [CHIT1]
- protein stability index (treatment: DMSO): 3.13 ± 0.25
- protein stability index (treatment: MLN4924 1 uM, 8 h): 3.48 ± 0.22

Sequence: DFEHRPKAPVVECSITGDSSRVIA [WDR88]
- protein stability index (treatment: DMSO): 4.36 ± 0.26
- protein stability index (treatment: MLN4924 1 uM, 8 h): 4.49 ± 0.17

Sequence: KNNDLVVAVNGESVETLDHDSVVE [PDZK1]
- protein stability index (treatment: DMSO): 5.37 ± 0.27
- protein stability index (treatment: MLN4924 1 uM, 8 h): 5.34 ± 0.14

Sequence: SPSFPEAPDSGRSAPYSAAFLELP [TBX6]
- protein stability index (treatment: DMSO): 3.96 ± 0.3
- protein stability index (treatment: MLN4924 1 uM, 8 h): 3.93 ± 0.44

Sequence: LCSFLLLLLLQVSSSYAGQFRVIG [MOG]
- protein stability index (treatment: DMSO): 3.39 ± 0.38
- protein stability index (treatment: MLN4924 1 uM, 8 h): 3.29 ± 0.29

Sequence: GDNPYMYPEQSKGFHKAGSMLPPV [SPATS1]
- protein stability index (treatment: DMSO): 3.37 ± 0.16
- protein stability index (treatment: MLN4924 1 uM, 8 h): 3.35 ± 0.27

Sequence: LRRESTSQKEMDKAETKTKKAAES [FCHO1]
- protein stability index (treatment: DMSO): 5.45 ± 0.28
- protein stability index (treatment: MLN4924 1 uM, 8 h): 5.46 ± 0.13

Sequence: APLIQPCHSESGKSRLVQLPPVAV [PCMTD2]
- protein stability index (treatment: DMSO): 3.13 ± 0.21
- protein stability index (treatment: MLN4924 1 uM, 8 h): 3.29 ± 0.38
